Assay results published in patent publication US20250388694A1 (BOOSTIMMUNE, published 2025).

T1: Human TCTP (translationally controlled tumor protein) (human, UniProt P13693 1-172)
T1 construct: also called HRF; Tpt1
T1 sequence: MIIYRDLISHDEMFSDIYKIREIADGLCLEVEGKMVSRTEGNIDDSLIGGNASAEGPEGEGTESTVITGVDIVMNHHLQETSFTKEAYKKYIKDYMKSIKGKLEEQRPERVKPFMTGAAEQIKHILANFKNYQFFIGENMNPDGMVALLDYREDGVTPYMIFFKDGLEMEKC

T2: mouse TCTP in which the 13th leucine was replaced with methionine (mouse, UniProt P63028 1-172)
T2 construct: One of several mouse-to-human replacement mutants; also called mouse TCTP L13M
T2 sequence (looked up): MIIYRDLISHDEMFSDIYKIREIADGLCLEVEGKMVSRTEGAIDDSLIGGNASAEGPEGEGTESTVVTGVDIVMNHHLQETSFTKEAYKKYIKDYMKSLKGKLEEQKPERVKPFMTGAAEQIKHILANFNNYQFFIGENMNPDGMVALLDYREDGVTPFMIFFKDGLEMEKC

T3: mouse TCTP (mouse, UniProt P63028 1-172)
T3 sequence (looked up): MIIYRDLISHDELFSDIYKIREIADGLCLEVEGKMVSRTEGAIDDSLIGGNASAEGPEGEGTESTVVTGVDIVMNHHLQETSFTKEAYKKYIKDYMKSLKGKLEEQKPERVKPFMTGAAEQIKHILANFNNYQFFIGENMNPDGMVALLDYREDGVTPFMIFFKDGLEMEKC


Columns and labels:
[1] = target: T1, Human TCTP (translationally controlled …); experiment: ELISA, human TCTP coated at 1 µg/ml, antibody titrated, OD 450 nm
Method: ELISA was carried out to quantitatively analyze the binding capacity of selected antibodies to antigens. To this end, human TCTP was attached to an ELISA plate at a concentration of 1 μg/ml and then treated with antibodies of various concentrations to check the relative binding capacity. As a result of the measurement, all of antibodies Ab1, Ab2, Ab3, Ab4, Ab5, Ab6, Ab7, Ab8, Ab9, Ab12, Ab13, Ab14, Ab15, Ab17, Ab18, Ab19, Ab20, Ab21, and Ab22 were confirmed to bind well to human TCTP (FIGS. 1a and 1b).

[2] = target: T1, Human TCTP (translationally controlled …); experiment: competition ELISA: human TCTP coated at 1 µg/ml, 150 nM TLR2 plus titrated antibody, bound TLR2 detected; % inhibition of TLR2-TCTP binding
[3] = target: T1, Human TCTP (translationally controlled …); experiment: SPR, Biacore 8K, human TCTP immobilised on CM5 chip, antibody as analyte, 1:1 model
Method: The antigen binding capacity of antibodies selected in Example 1 was analyzed using a SPR technique. The device used was Biacore 8K (Ge Healthcare). Human TCTP was immobilized on a chip, and antibodies were shed at 6 or 7 different concentrations. A CM5 chip (GE Healthcare, Cat. 29-1275-56), a regeneration buffer (10 mM glycine-HCl (GE Healthcare)), and a driving buffer HBS-EP+, and the like were used. For kinetic analysis, the binding time was set to 100 or 120 seconds, the flow rate was set to 30 or 50 μl/min in the binding phase, and in the dissociation phase, the dissociation time was set to 300 or 360 seconds, and the flow rate was set to 30 or 50 μl/min. The fitting was carried out using a 1:1 combined model, and BIACore Evaluation Software (GE healthcare) was used as the evaluation software.

[4] = target: T2, mouse TCTP in which the 13th leucine …; experiment: ELISA on mouse TCTP mutants
[5] = target: T3, mouse TCTP; experiment: ELISA on mouse TCTP, binder titrated as scFv (axis [scFv] Log(nM)), OD450 [panel Mouse TCTP]
[6] = target: T1, Human TCTP (translationally controlled …); experiment: ELISA, selection of hybridoma antibodies

Row | Binder | EC50 (read off the curve) [1] | IC50 (read off the curve) [2] | Kd [3] | binding result [4] | binding result [5] | binding result [6]
1 | Ab8 (antibody, V domains shown, From Beacon screening; also called antibody Ab8) VH: QVQLVQSGAEVKKPGASVKVSCKASGYTFFSYAMHWVRQAPGQRLEWMGWINAGNGNTKYSQKFQDRVTITRDTSATTAYMELSSLRSEDTAVYYCASWVFDYWGQGTPVTVSS VL: DIVMTQTPLSSLVTLGQPASISCRSSQSLVHRDGNTYLSWLQQRPGQPPRLLIYKISNRFFGVPDRFSGSGAGTDFTLKISRVEAEDVGVYYCMQATQFPHTFGQGTKLEIK | ~0.02 µg/mL | ~6 nM | 14 nM | – | – | –
2 | Ab20 (antibody, V domains shown, also called antibody Ab20) VH: QVQLQQSGPGLVKPSQTLSLTCAISGDSVSSSSAAWNWIRQSPSRGLEWLGRTFYRSKWYNDYAESVKSRITINADTSKNQFSLQLNSVTPEDTAVYYCARRLTIVRGVMRGGMDVWGQGTTVTVSS VL: DIVMTQSPDSLTGSLDERATINCKSSQNLLYSANNKDYIAWYQQKPGQSPKLLIYWASIRYSGVPDRFSGSGSGTDFTLTISSLQAEDVAVYYCQQYFSTPWTFGQGTKVEIK | – | ~10 nM | 0.704 nM | – | – | –
3 | Ab12 (antibody, V domains shown, also called antibody Ab12) VH: QVQLVQSGAEVKKPGASVKVSCKASGYTFTSHAVHWVRQAPGQRLEWMGWINAGKGNTKYSQKFQGRVTITRDTSATTAYMELSSLRSEDTAVYYCARGRAVAFDPWGQGTLVTVSS VL: RSALTQPPSASGSPGQSVTVSCTGTNSDIGGYNYVSWYKQHPGNAPKLMIYEVNKRPSGVPDRFSGSKSGNTASLTVSGLQTEDEADYYCASYAGDNNLVFGGGTKLTVL | – | ~10 nM | 0.168 nM | – | – | –
4 | Ab10 (antibody, V domains shown, also called antibody Ab10; parent antibody) VH: not shown VL: QSVVTQPPSVSAAPGQKVTISCSGSSSNIGNKKVSWYQQLPVTAPKLLIYDDNKRPSGIPDRFSGSKSGTSATLGITGLQTGDEADYYCATWDSSLRAVVFGGGTKLTVL | – | – | 0.224 nM | binds | binds | –
5 | Ab16 (antibody, V domains shown, also called antibody Ab16) VH: QVQLQQSGPGLVKPSQTLSLTCAISGDSVSSNSAAWNWIRQSPSRGLEWLGRTYYKSKWYNDYAVSVKSRMTINPDTSKNQFSLQLNSVTPEDTAVYYCARGGSAVFDYWGQGTLVTVSS VL: not shown | – | – | – | – | – | binds
